Results: a protein production outcome set (Wang et al. 2014)

Experiment: label from the status in PepcDB records
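Also: failed if final PepcDB status was selected cloned or expressed and not failed if soluble or beyond.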

## MTVSDPAGPRCFCRDCLVDLDMGVRRCSACGSPRLVRHRALSSLTIAHIDCDAFYATVEKRDNPDIADKPVIIGGGKRGVVSAACYIARTYGVRSAMPMFKALDACPHAIVIRPDMAKYVRVGREVRQAMQALTPLVEPLSIDEAFLDLSGTERVHGMIPAKVLARFARNIERDIGISVSVGLSCNKFLAKIASDLDKPRGFAALDQEEARLMLASRPVGFIFGVGPATQERLVQRGFRIIADLQKADEIEMMRQFPSDGRRLWRLARGIDDRRVEPDRGAKTISSETTFETDIRDFATLEKILWRLCEKTSSRLKSSELAGSTVTLKLKTADFRQRTRSQSIAAPTQLAAKIFSICREMLAKEIDGTAFRLMGAGVSALREGSPADDTDMLDRRAAHAERAVDSLRKKFGNSAVIRGIAYDGPETGQQE
  protein production: failed

## MTVSQDILLTDHFKQWIEIFKKGKVSDGTYRKYLYTLSVLKKHFSTATIKTMNRVKYQEMLNEFAEGHSDSSVKQINVHVRASLENLLDDFIIKNDFTKGAISLEHHHHHH
  protein production: not failed

## MTVTSPRIATILLLIVCFIWGVEFVPIDLAIEVMPTNTFNAIRFAVATLSMLPLLWFVQKKNKGNSKPIDYVLLIRSGMLLGFFLFIGFYTQTEGMRFTTVTNAGFITGLCVPLVPVLGFLIFRNVVPKSVWIGVVTATAGLYMLTIGDKLVFNKGDILVLICAFGFAGHIIMTDRFVDNLPIIPLSIVQIFAVSIYSTIAIFIGPDPVFYYQDAEPVSWYQQLFTPLMIFAILVSGILGTAYAFWAQSVSQTLLKPHKVALIFAAEPVFACIAAWVFLDEVLGEKGMIGAGLILAGMLVSELGDRKKQPELRALDQTAALK
  protein production: failed

## MTWLFCDRIATKIDKNNGISMITHNFNTLDLLTSPVWIVSPFEEQLIYANSAARLLMQDLTFSQLRTGPYSVSSQKELPKYLSDLQNQHDIIEILTVQRKEEETALSCRLVLRKLTEAEPVIIFEGIEAPATLGLKASRSANYQRKKQGFYARFFLTNSAPMLLIDPSRDGQIVDANLAALNFYGYNHETMCQKHTWEINMLGRRVMPIMHEISHLPGGHKPLNFVHKLADGSTRHVQTYAGPIEIYGDKLMLCIVHDITEQKRLEEQLEHAAHHDAMTGLLNRRQFYHITEPGQMQHLAIAQDYSLLLIDTDRFKHINDLYGHSKGDEVLCALARTLESCARKGDLVFRWGGEEFVLLLPRTPLDTALSLAETIRVSVAKVSISSLPRFTVSIGVAHHEGNESIDELFKRVDDALYRAKNDGRNRVLAA
  protein production: failed

## MTWSFTLGRLFGSELKVHVTFFLLIGWIGVSAYQMGGWPSAVENTAFVLALFACVVAHEYGHALTARRYGIRTPDITLLPIGGLARLDRMPEKPGQEIVVALAGPAVNVAIWAALTLVGVDTRFETLAAIDSAEPDFLGRLAMVNLFLAVFNLIPAFPMDGGRVLRAALSLTMDRVRATRIAAAAGQLVALLFGFAGLSGGNPVLVLIAVFVFIAANAEAQDVAMRAVTRRLLARDAMITRFEALGPTDTLATAAQAVLHTTQHEFPVLDGEGHLLGFVTRARLFAALAADHPRSDPAETVMDREIPQVPLASGLETVLDALYQGAPAVAVTSADGRMLGYVTRENVGELMVIQGR
  protein production: failed

## MTYKSLPVAEKIQSYWNRRARLVIVTSFTILCAAATIYFHMILGVEIVFTHLFYIPMVFAAVWFGRRSFIVTAFLGTVLLVTHALASLGGFQDDVMRLSVMFFVNAITVILSESIGESEEALAESEEKYRTIVESARDAIITVDGNGSIVSWNSAAEKIFGYRAAEMMGRHIDTIITEENLEKHDFNRIIDREISIMVTDVEGVRKDGTRVPLEISVFSWNYMDEKFITAVIRDVTERKMAENALIESERKFRAVFDGVEDIITIVEIRENGLPGKYIEVNRAAVEKLGYSRDELLRMTPADMGVSREQSYDIIKNLLRSGKVTFNRTYISRDGRRIPVEVNSRLLELGEMKVAVSVARDITQRLENERRLRESEEKYRSLFDLSPEYILLLDPEDGRILDVNSTLAGTLGIPSEELRGRSIYELEFLSDDVKTEFRSKIEVIERDGTLEPYEMVLTDPYGREYTVRIYNKLIHAEGRECLLIVLNDISDLKRTQSMLEKSLAEKELLLKEIHHRVKNNLMIISSLLSLQSRQAKDRETMDLFRESENRTRSMVLIHERLYRSEDLKNIDLAEYLGRLASEIFRSYSADSRIRLKLEIDELKVDVETAVPLGLIVNELLTNAVKHAFPDGEGTVTVSLRKRNGTVTLEVSDDGAGFPEDIDWESSPSLGLQLVRKPH
  protein production: failed

## MVAAIIAGAAVAAAAYAGKYGIEAWQAFKLRPVRPRMRKFYEGGFQATMNRREAALILGVRESVAAEKVKEAHRRVMVANHPDAGGSHYLASKINEAKDMMLGKTKNSGSAF
  protein production: failed

## MVADSFVYSFVSSPDLSVLVLLCVLLLTALRQVGSLRLQIWQVMTLGAFSVLLLGEISPQEALRAINIDVLLFLFGAFCVGEALNRSGYLAWIGGRIVSRAKNTDQLVLLVIFSTGLLSAVLMNDTLAIMGTPLVLRFSRKYGVSPKLMLFALAFGITTGSVMSPIGNPQNLLIAIDGNLDSPFVVFLSSLAVPTMINLVLVYAVLKLFFSREFGKPALIHTEELISDPELAEISKKALFLLLALITCKILLVEFLPAWDFSLSWIALFSASPILLSKRRTEVVKNIDWATLVFFVSMFVLMESVWISGTCQGLLYRMSPQLGSVPTILALSIGLSQLISNVPFVALYLPAMGSGVSQGQLMALAAGSTIAGNLLILGAASNVIILQNAEKEGETFSFMEFAKIGLLISFLNAIIYFIFL
  protein production: failed

## MVARDTTAPQVKIVNPVTGNVSGSNVPISVNASDDSGASGITYALYIDGVLKATGKGSTLGYNWNIRNVAAGAHTVQVVAKDAAGNSASSSVSVTVVKLEHHHHHH
  protein production: failed

## MVCFASLFEEVSMHTCPLCHNQHTRHYFEDKHREYLQCEQCYLVFVNPDQRLDAETEKAHYDLHENNPEDIGYRRFLSRIADPITERISPQSNGIDFGCGPGPTLSLMLEEAGHNMALYDIYYHPDTAVLEKQYDFMTATEVIEHLYHPDVVWKQWLNLVKPGGWIGLMTKMVIDVEAFKSWHYKNDPTHVVFFSRDTFQFLAERDKLELEFIGNDVILLRKTQLEHHHHHH
  protein production: not failed

## MVDQNPEEYYSKGILQYDDGNYTESIDLFEKAIQLNPEESKYWLMKGKALYNLERYEEAVDCYNYVINVIEDEYNKDVWAAKADALRHIEGKEVEAEIAEARAKLEHHHHHH
  protein production: not failed

## MVDYKTVRCHFGDVELTKWITITDGFTVFSGADYDPELKEIGGKDGSIFIGTKTKHKVIKVPFWVKYNTIEDYDALQLALSSKKPKMLMFSHIPGRYYLAVQVGDLNFKEIKMNGFGEITFIVADAYAHSTSYRRIKDYTQDGNKMTFKIKNNGTAPAFPIFRIKHLGENGYIGITNETGAFAVGSPEEEDGTIVHRNETLFDYSKAIAQALEGAPNVAKLNYMPPTFDSELKRMRLDNILGSGKGGEYVAIGARGTTPGYGEHVGTRTFIINPDSNGEYTLNEHLWWKQIFIATAQDQKGFLKLCVTGENDEFLYGIETYKRKNGFETEYNFFALDDDGVGWRFYKQFEFQADRNYHNPFSMNRSRAVEIFREEDKFRIYFNGAHHHVTVPSLKGKKSRKIHLAMGTCSDSSKYINYNLFEKVNFEKMGVSHYNNIVNKYQPGDEVIINFENDTVSTKDIDSIQDVVLGSKMISIPPGESELVVHLSSWVAALPDISIDFEERYK
  protein production: failed

## MVEADRPGKLFIGGLNTETNEKALEAVFGKYGRIVEVLLMKDRETNKSRGFAFVTFESPADAKDAARDMNGKSLDGKAIKVEQATKPSFE
  protein production: failed

## MVEENQLQSLKDVAKQAPVHRKLDIQEWKTAEGAKVLFVEAHELPMFDLRLTFAAGSSQDAGTPGLSMLTNAMLNEGVPGKDTTAIAAGFEDLGASFSNGSYRDMAVAGLRSLSEADKRTQALKLFEQVIGQPTFPEDALARIKNQVLAGFEYQKQNPGKLAGLELFKRLYGEHPYAHSSDGDEKSVPTISREQLQAFHKKAYAAGNVVIALVGDLSRQEAEAIAAEVSKALPQGPALAKTVQPETPKPGLTHIDFPSEQTHLMLAQLGIDRQDPDYAALYLGNQILGGGGFGTRLMDQVREKRGLTYGIYSGFTAMQARGPFMINFQTRAELSEGALKLVQDIVRDYLANGPTQKELDDAKRELAGSFPLSTASNADIVGQLGAIGFYGLPLDYLESFLKQVEGLSVEQVRTAMAKHLDADAFVIVSAGLEHHHHHH
  protein production: not failed

## MVEFELLRSLGIMLLAALGVVLVARTARVPNIVAYIGAGLLLGPALGVLTVTHTIELIAEFGIILLLFLVGLELSLDKIKAVGTTAFVAGGVQMGGTALGGGLLAGLVGVPVVEAVVVAVAIMFSSTVVVVKMLEKQSDLDAPYGQIAVGVLLVQDLVVVMVLTFVAGLAGPGELAWADVARGLGQAFVGMVLLGGLIAAAARYVLPPAIQWISRMTEGLFIWSLFWCFLVVLGAEALHLSPELGAFLAGIALAQLPQCHELRQRVHPLMNFFIIVFFVSLGLQMELGAALARWPLALALAAFVMVVKPLLFFGVLPRLGHGEETSFRTGLSLAQISEFSLIFGALALSSGLIDEALLSVITLVGLVTFALSSFLLLYSDRLYAAVKPYRPLAWLGARQEAPAPPPDGLQGHVIVVGLNTLGRCLVDRLTAAGETVVAVDTDPEKLARRSVSTVHGNAVHETTREAADWEDAKLVVSSLSIEGTNNLLAYHAQRAGVPCSIHAFDRTSENSLRTFGVDHLIRSKHEGARRLLDELKSRAVLS
  protein production: failed

## MVEGLGRIGFGLFGLAVLIGITWLFSSNRRAIDWKLVATGLALQISFAALVLLVPGGRDVFDALGKGFVKVLSFVNEGSTFIFGNLMNIDSYGFIFAFQVLPTIIFFSALMGVLYHLGVMQMVVRAMAWAITKVMRVSGAETTSVCASVFIGQTEAPLTVRPYIPKMTQSELLTMMIGGMAHIAGGVLAAYVGMLGGSDPAQQAFYAKHLLAASIMAAPATLVVAKLLVPETGTPLTRGTVKMEVEKTTSNVIDAAAAGAGDGLRLALNIGAMLLAFIALIALINAPLTWLGEVTGATALLGRPTNLSTIFGYVLAPIAWVIGTPWVDATTVGSLIGQKVVINEFVAYSELSRIVKGEVRGVGLSAEGRLIATYALCGFANFSSIAIQIGGIGGLAPERRHDLANFGLRAVLGGSIATFMTATIAGVLSHFG
  protein production: failed

## MVEIIPVSTTLELRAADESHVPALHQLVLKNKAWLQQSLDWPQYVTSQEETRKHVQGNILLHQRGYAKMYLIFCQNEMAGVLSFNAIEPINKAAYIGYWLDESFQGQGIMSQSLQALMTHYARRGDIRRFVIKCRVDNQASNAVARRNHFTLEGCMKQAEYLNGDYHDVNMYARIIDAD
  protein production: not failed

## MVEMNKRGQFFIIGGVILSIGLILFFLLGFNSYTSDGSYLTVFKMKDVKNSIESCLINSLTSNSNLSKNLDMLKNNYKDEGIEINYKKIIFSNIRYEAKNLTFNFSLYNGNFSYNISNYGFGGAFNGSLNVSNYVFSKNLLLNISENGSVTGSFNITGSYVNVFVYDRFGNLILNETIYNNSNEKSLYYYILNVSKEGILLYLLWQRMFLTTHWQKMYPL
  protein production: failed

## MVEPGVAKLTTYASKQATDMGAIYVNSKGDRIVNESNVYTTFRNAILKQADKVAYLVMDERTWKKVYDLLILHDFTPEEIKSFFENKGKRPVFVKGSLESAAEQAGIVVDELVQTVKNYQGYVQDGHDHDFGRDPKYLHQFEGETFYIIEQRLEHHHHHH
  protein production: failed

## MVESKTKFEEIRKWVSDHKLRTVGCLWLSGITGSIAYNWSQPAMKTSVKIIHARLHAQALTLAALAGAAVVEYYDHKTEATNRYPKFLPPENLSHKD
  protein production: failed
